Experiment [1] has as its target talin-1 head domain (THD) (UniProt P26039). The experiment in a line: Microscale thermophoresis (MST) affinity measurement. The class given is binding. The note with it: 200 nM Atto488-labeled β1-tail peptide, 20 mM Tris pH 7.5, 200 mM NaCl, 1 mM TCEP, 0.05% Tween-20. How it is done: All MST measurements were performed on a Monolith NT.115 red-blue (Nanotemper) using premium-coated capillaries to reduce non-specific interaction of the proteins with the glass surface. Both interaction partners (ligand and receptor) were transferred into MST buffer (20 mM Tris, pH 7.5, 200 mM sodium chloride, 1 mM tris(2-carboxyethyl)phosphine [TCEP], 0.05% Tween-20) to avoid artifacts derived from buffer mismatches. […] The measurements were carried out at 20% light emitting diode power and 20% and 40% MST power. Data were analyzed using the MO Affinity Analysis Software (Nanotemper).

Another experiment deals with endogenous SNX17. The experiment in a line: Peptide pull-down from whole cell lysate, Western blot. The class given is binding. Conditions: Western blot, n = 5. How it is done: (§1) Before use, peptides were immobilized on 25 μl Dynabeads MyOne Streptavidin C1 (10 mg/ml; Invitrogen) in Mammalian Protein Extraction Reagent (Thermo Fisher Scientific) containing protease inhibitors (cOmplete; Roche) and phosphatase inhibitors (Phosphatase Inhibitor Cocktail 2 and 3; Sigma-Aldrich) for 3 h at 4°C. Cell lysates were prepared with MPER containing protease and phosphatase inhibitors and 0.5 mg of supernatant was incubated with the peptide-coated beads at 4°C under constant rotation. For pull-downs with recombinant proteins, synthetic β1 integrin tail peptides were immobilized on 25 μl Dynabeads MyOne Streptavidin C1 (10 mg/ml; Invitrogen) for 3 h at 4°C, incubated with 2% BSA in Mammalian Protein Extraction Reagent (Thermo Scientific Scientific) for 30 min at 4°C to block unspecific binding before adding kindlin-2 or THD (conc 2.5 and 8.5 nM, respectively) and further incubation on a rotator for 2 h at 4°C. After washing the beads three times with lysis buffer, the proteins bound to the beads were eluted using Laemmli buffer, separated on a 10% SDS–PAGE, and analyzed by Western blotting.

Another experiment has as its system endogenous kindlin-2. The description is as above. The format is binding. Conditions: Western blot, n = 5. On the procedure:
as §1

A further experiment concerns the target T1, kindlin-2 (Homo sapiens, UniProt Q96AC1).
T1 sequence (Q96AC1 1-680): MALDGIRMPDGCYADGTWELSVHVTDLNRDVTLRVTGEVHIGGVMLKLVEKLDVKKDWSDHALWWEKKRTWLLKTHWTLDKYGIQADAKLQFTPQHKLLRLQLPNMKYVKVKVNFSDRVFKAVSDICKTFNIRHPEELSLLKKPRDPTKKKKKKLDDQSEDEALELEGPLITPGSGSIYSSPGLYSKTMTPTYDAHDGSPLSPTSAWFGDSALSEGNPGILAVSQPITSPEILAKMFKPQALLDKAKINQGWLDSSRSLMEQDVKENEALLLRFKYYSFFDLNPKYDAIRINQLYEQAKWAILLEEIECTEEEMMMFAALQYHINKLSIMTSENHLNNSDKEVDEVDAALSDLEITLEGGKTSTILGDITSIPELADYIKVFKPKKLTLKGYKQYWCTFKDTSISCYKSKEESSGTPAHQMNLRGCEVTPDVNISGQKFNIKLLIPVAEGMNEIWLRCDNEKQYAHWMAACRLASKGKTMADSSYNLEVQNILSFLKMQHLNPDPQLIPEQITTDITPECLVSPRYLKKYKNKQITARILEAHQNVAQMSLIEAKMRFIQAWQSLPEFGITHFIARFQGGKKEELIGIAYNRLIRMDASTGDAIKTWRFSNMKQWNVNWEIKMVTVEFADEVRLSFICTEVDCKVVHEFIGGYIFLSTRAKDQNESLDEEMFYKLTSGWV
The experiment in a line: Microscale thermophoresis (MST) affinity measurement. The note with it: 200 nM Atto488-labeled β1-tail peptide, 20 mM Tris pH 7.5, 200 mM NaCl, 1 mM TCEP, 0.05% Tween-20. The class given is binding.

Experiment [2] deals with anti-β1-pTpT integrin antibody (Thermo Fisher Scientific). Description: Integrin peptide ELISA (direct ELISA, immobilized tail peptides). The class given is binding. The note with it: antibody dilution range 1:500 to 1:10,000 (Fig 1D). On the procedure: (§2) The plates were blocked with 200 μl PBS containing 3% BSA for 1 h at room temperature and then washed thrice with 200 μl PBS. Different dilutions of the anti–β1-pTpT antibodies (Thermo Fisher Scientific and Abcam) in 100 μl PBS supplemented with 3% BSA were incubated for 2 h at room temperature. After washing thrice with 200 μl PBS, 100 μl of anti-rabbit-IgG HRP-conjugate was added (1:10,000 in PBS supplemented with 3% BS) and incubated for 1 h at room temperature. The plates were washed thrice with 200 μl PBS, developed with 100 μl of ABTS substrate solution (1-Step ABTS; Thermo Fisher Scientific) before measuring absorbance at λ = 405 nm in a SpectraMax ABS Plus plate reader (Molecular Devices).

Experiment [3] has as its system anti-β1-pTpT integrin antibody (Abcam). Described as above. The class given is binding. The note with it: antibody dilution range 1:500 to 1:10,000 (Fig 1E). On the procedure: as §2
For the next experiment, the target named is FNIII7-10^RGD. The experiment in a line: AFM-based single-cell force spectroscopy (binding probability); single fibroblast on a concanavalin A-coated cantilever brought onto glass coated with 50 μg/ml FN fragment; contact force 200 pN, contact time ~300 ms, 37°C, 1 μM cilengitide.
The target in the next experiment is FNIII7-10^ΔRGD. The experiment is described as above.
The target of experiment [4] is T2, recombinant talin-1 head domain (THD).
T2 chain: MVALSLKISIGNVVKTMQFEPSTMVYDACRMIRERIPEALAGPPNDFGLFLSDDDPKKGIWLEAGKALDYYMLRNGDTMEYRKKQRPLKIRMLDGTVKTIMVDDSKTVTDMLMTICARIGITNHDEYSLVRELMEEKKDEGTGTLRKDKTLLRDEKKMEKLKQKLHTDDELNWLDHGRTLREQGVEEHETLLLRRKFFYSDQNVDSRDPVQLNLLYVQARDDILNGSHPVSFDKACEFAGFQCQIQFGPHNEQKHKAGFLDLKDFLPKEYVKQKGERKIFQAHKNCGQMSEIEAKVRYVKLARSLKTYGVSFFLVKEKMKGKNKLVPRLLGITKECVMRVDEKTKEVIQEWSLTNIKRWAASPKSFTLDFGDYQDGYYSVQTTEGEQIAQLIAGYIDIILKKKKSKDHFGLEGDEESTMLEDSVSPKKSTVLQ
The experiment in a line: MST.

The target of a further experiment is T3, recombinant kindlin-2 (UniProt Q8CIB5 1-680).
T3 chain: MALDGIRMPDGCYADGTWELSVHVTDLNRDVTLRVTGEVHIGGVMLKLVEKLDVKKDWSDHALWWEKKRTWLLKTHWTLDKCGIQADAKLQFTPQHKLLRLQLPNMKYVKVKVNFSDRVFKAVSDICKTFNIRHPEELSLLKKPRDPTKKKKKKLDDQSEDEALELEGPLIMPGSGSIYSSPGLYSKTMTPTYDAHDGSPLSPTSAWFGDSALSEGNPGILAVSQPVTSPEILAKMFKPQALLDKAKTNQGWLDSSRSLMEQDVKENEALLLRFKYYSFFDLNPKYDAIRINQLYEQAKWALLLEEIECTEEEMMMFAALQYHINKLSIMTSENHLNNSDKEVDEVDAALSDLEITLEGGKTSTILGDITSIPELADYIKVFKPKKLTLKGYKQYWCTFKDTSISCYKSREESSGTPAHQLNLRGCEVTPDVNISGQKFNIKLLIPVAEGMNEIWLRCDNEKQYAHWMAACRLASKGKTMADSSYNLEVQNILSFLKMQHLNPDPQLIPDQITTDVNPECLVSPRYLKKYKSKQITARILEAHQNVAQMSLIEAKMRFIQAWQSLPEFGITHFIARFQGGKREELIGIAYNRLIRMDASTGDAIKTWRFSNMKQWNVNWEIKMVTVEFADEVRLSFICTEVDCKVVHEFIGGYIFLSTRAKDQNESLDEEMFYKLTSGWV
Description: MST.

Non-standard residues stand in square brackets, D forms with d. No end group written: not given here. pT = C[C@@H](OP(=O)(O)O)[C@H](N)C(=O)O Where only a bound is given, the exact number is not on record here.

Sequence of β1-TT/EE integrin on β1-KO fibroblasts (P09055 whole entry, looked up): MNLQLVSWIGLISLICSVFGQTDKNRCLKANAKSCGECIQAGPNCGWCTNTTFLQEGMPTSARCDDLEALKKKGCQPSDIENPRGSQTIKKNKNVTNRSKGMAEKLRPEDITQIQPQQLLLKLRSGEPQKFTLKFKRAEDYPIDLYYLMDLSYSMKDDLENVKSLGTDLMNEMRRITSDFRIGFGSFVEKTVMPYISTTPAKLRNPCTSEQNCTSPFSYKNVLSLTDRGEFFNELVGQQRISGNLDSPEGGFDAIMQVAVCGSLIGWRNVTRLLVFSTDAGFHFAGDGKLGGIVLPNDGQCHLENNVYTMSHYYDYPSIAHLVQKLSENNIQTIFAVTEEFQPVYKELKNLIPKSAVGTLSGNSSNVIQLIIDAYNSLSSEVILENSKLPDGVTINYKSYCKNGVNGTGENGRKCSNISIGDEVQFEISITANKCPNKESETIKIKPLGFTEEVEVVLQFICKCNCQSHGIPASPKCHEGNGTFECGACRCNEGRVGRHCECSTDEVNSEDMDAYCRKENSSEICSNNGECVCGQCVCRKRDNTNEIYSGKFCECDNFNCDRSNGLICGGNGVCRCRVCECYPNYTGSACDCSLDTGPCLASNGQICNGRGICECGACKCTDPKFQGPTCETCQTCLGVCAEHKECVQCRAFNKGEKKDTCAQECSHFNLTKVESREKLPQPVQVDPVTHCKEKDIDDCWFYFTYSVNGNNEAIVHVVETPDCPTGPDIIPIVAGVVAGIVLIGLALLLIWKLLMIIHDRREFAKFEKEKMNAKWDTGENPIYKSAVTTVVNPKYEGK
Sequence of β1-TT/DD integrin on β1-KO fibroblasts (P09055 whole entry, looked up): as above
Sequence of β1-TT/AA integrin on β1-KO fibroblasts (P09055 whole entry, looked up): as above
Sequence of talin-1 head domain (THD) (P26039 whole entry, the tested form may be a part): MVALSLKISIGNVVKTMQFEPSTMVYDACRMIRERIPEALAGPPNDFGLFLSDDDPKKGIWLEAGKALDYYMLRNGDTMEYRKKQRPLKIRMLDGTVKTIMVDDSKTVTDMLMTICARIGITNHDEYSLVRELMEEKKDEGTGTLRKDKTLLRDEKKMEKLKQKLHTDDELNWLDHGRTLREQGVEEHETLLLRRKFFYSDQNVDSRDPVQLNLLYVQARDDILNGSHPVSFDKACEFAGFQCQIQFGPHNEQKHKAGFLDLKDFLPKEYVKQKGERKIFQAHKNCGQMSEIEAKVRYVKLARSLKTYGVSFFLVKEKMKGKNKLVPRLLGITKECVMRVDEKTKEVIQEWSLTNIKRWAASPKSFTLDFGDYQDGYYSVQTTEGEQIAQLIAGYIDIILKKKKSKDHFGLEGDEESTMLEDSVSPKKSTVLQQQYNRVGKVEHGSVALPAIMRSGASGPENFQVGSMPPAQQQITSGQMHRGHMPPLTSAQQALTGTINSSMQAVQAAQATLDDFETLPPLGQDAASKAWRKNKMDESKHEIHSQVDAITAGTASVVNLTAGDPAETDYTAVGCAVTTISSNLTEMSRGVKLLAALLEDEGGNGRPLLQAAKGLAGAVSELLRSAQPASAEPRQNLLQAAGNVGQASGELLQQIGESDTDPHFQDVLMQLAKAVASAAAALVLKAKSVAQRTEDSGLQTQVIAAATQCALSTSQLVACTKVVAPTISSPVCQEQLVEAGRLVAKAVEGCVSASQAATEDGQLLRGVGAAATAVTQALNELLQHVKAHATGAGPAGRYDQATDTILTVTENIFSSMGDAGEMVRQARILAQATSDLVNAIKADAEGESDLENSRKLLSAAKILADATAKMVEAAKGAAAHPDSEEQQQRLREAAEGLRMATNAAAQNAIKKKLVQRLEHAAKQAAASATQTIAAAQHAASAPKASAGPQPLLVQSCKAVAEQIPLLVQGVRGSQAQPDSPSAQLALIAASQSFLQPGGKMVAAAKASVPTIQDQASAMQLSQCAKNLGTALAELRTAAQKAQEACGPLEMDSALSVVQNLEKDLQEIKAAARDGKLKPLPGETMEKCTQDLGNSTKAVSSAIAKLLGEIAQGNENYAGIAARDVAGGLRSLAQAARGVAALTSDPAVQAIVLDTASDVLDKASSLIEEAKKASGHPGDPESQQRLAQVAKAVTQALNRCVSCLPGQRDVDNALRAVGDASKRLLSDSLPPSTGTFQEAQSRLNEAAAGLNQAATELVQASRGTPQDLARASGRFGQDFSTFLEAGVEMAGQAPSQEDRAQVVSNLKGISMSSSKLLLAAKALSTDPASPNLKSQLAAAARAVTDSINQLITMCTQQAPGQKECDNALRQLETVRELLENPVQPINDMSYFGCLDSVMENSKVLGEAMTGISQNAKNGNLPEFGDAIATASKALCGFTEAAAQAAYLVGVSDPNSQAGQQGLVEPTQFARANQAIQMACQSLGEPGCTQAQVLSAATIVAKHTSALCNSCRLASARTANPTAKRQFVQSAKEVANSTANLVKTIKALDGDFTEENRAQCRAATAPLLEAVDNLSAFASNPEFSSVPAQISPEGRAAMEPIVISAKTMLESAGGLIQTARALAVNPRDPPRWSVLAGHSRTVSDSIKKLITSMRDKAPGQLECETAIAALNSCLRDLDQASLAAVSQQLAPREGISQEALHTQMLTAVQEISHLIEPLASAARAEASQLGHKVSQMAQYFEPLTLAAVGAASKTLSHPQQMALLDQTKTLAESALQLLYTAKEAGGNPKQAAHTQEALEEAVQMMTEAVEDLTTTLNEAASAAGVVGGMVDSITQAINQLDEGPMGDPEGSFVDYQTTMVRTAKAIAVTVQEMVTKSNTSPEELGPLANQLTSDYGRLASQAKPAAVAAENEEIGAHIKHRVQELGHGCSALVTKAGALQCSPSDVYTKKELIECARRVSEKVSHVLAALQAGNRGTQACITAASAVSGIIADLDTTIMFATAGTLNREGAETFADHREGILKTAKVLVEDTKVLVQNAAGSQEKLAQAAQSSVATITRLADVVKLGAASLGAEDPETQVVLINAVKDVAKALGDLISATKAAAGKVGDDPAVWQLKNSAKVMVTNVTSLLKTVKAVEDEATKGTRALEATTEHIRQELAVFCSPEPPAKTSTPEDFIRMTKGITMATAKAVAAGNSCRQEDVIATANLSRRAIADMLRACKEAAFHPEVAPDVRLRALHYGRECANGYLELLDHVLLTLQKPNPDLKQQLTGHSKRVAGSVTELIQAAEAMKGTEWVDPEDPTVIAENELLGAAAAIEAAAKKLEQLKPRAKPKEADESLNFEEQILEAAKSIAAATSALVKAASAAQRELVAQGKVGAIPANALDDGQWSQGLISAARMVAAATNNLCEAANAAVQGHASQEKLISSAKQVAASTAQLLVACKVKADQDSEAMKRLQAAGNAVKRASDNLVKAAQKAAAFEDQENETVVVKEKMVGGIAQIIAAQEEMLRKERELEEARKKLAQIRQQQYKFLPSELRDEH

The molecule `CC[C@H](C)[C@H](NC(=O)[C@@H]1CCCN1C(=O)[C@H](CC(N)=O)NC(=O)[C@H](CCC(=O)O)NC(=O)CNC(=O)[C@@H](NC(=O)[C@H](CC(=O)O)NC(=O)[C@H](Cc1c[nH]c2ccccc12)NC(=O)[C@H](CCCCN)NC(=O)[C@H](C)NC(=O)[C@H](CC(N)=O)NC(=O)[C@H](CCSC)NC(=O)[C@H](CCCCN)NC(=O)[C@H](CCC(=O)O)NC(=O)[C@H](CCCCN)NC(=O)[C@H](CCC(=O)O)NC(=O)[C@H](Cc1ccccc1)NC(=O)[C@H](CCCCN)NC(=O)[C@H](C)NC(=O)[C@H](Cc1ccccc1)NC(=O)[C@H](CCC(=O)O)NC(=O)[C@H](CCCNC(=N)N)NC(=O)[C@H](CCCNC(=N)N)NC(=O)[C@H](CC(=O)O)NC(=O)[C@@H](N)Cc1c[nH]cn1)[C@@H](C)O)C(=O)N[C@@H](Cc1ccc(O)cc1)C(=O)N[C@@H](CCCCN)C(=O)N[C@@H](CO)C(=O)N[C@@H](C)C(=O)N[C@H](C(=O)N[C@H](C(=O)N[C@H](C(=O)N[C@H](C(=O)N[C@H](C(=O)N[C@@H](CC(N)=O)C(=O)N1CCC[C@H]1C(=O)N[C@@H](CCCCN)C(=O)N[C@@H](Cc1ccc(O)cc1)C(=O)N[C@@H](CCC(=O)O)C(=O)NCC(=O)N[C@@H](CCCCN)C(=O)O)C(C)C)C(C)C)[C@@H](C)O)[C@@H](C)O)C(C)C` [β1-WT] gave a Kd in experiment [1] of 140 ± 20 µM. Take “EYEFEPDKVDTGAKGTKMAKNEKKFRNYTVHNIWESRKVAP-OH [scrambled, scrambled β1 integrin cytoplasmic tail peptide used as control, reference compound]”: the “SNX17 binding to the peptide (in words)” value in the experiment on endogenous SNX17 is “lost”. Besides, in the experiment on endogenous kindlin-2, the “kindlin-2 binding to the peptide (in words)” value was “lost”. With “HDRREFAKFEKEKMNAKWDTGENPIAKSAVTTVVNPKYEGK [β1-Y783A]”, binding on kindlin-2 was characterised by a dissociation constant (Kd) of 4.9 ± 0.7 µM. For the molecule “HDRREFAKFEKEKMNAKWDTGENPIYKSAVAAVVNPKYEGK [β1-TT/AA]”, the Kd in experiment [1] amounted to 100 ± 15 µM; on kindlin-2, 151 ± 1 µM. For the molecule “KWDTGENPIYKEAVpTpTFTVDFTFNKFNPKYEGK-OH [β3/β5-pTpT, chimeric β3/β5-pTpT peptide]”, the “binding of the anti-β1-pTpT antibody to the immobilized peptide (in words)” value in experiment [2] and in experiment [3] was “detected binding” each time. “β1-TT/AA integrin on β1-KO fibroblasts (from UniProt P09055 21-798) (receptor)” came in with a percent of binding probability experiments with multiple unbinding events in the experiment with FNIII7-10^RGD of 7.7%. The molecule further yielded a percent of binding probability experiments with more than one unbinding event with FNIII7-10^ΔRGD of under 3%. Regarding “β1-TT/DD integrin on β1-KO fibroblasts (from UniProt P09055 21-798) (receptor)”, the percent of binding probability experiments with multiple unbinding events in the experiment with FNIII7-10^RGD came out at 3.8%. In the experiment with FNIII7-10^ΔRGD, this molecule gave a percent of binding probability experiments with more than one unbinding event of under 3%. “β1-TT/EE integrin on β1-KO fibroblasts (from UniProt P09055 21-798) (receptor)” showed a percent of binding probability experiments with multiple unbinding events with FNIII7-10^RGD of 4.6%. This molecule also had a percent of binding probability experiments with more than one unbinding event with FNIII7-10^ΔRGD of under 3%.

Consider “β1-WT integrin on β1-KO fibroblasts (β1-class integrins) (from UniProt P09055 21-798) (receptor)”, for which the percent of binding probability experiments with multiple unbinding events in the experiment with FNIII7-10^RGD is 32.3%. Moreover, the percent of binding probability experiments with more than one unbinding event with FNIII7-10^ΔRGD was under 3%. In the case of HDRREFAKFEKEKMNAKWDTGENPIYKSAVDDVVNPKYEGK (also: Atto488 label, position not given here) [β1-TT/DD peptide, Atto488-labeled], the Kd in experiment [4] was found to be 170 µM. For the molecule HDRREFAKFEKEKMNAKWDTGENPIYKSAVAAVVNPKYEGK (also: Atto488 label, position not given here) [β1-TT/AA peptide, Atto488-labeled], the dissociation constant (Kd) came to 100 µM in experiment [4] and 151 µM with recombinant kindlin-2. On to HDRREFAKFEKEKMNAKWDTGENPIAKSAVTTVVNPKYEGK (also: Atto488 label, position not given here) [β1-Y783A peptide, Atto488-labeled], for which the dissociation constant (Kd) with recombinant kindlin-2 was found to be 4.9 µM. As for HDRREFAKFEKEKMNAKWDTGENPIYKSAVTTVVNPKYEGK (also: Atto488 label, position not given here) [β1-WT peptide, Atto488-labeled], the equilibrium dissociation constant (Kd) in [4] is 140 µM. As to HDRREFAKFEKEKMNAKWDTGENPIYKSAV[pT][pT]VVNPKYEGK (also: Atto488 label, position not given here) [β1-pTpT peptide, Atto488-labeled], in [4], the Kd is 140 µM.

For the origin of these results see PMC8761493, “New insights into the phosphorylation of the threonine motif of the β1 integrin cytoplasmic domain” (Life Science Alliance, 2022).
